Bridge positions count the residues as written; N and C are the ends. Square brackets hold non-standard residues; d marks the D form. Ends that are not written are not given here. R8 = C=CCCCCCC[C@@](C)(N)C(=O)O; S5 = C=CCCC[C@](C)(N)C(=O)O; Nle = CCCC[C@H](N)C(=O)O
Key:
Assay type in all cases: binding
His-UBA1 = molecular target: T1, His-UBA1 (Homo sapiens, UniProt P22314); experiment: Fluorescence microscopy of Ni-NTA agarose beads with His-UBA1; conditions: FITC-labeled peptide 10 μM
T1 sequence (P22314 1-1058): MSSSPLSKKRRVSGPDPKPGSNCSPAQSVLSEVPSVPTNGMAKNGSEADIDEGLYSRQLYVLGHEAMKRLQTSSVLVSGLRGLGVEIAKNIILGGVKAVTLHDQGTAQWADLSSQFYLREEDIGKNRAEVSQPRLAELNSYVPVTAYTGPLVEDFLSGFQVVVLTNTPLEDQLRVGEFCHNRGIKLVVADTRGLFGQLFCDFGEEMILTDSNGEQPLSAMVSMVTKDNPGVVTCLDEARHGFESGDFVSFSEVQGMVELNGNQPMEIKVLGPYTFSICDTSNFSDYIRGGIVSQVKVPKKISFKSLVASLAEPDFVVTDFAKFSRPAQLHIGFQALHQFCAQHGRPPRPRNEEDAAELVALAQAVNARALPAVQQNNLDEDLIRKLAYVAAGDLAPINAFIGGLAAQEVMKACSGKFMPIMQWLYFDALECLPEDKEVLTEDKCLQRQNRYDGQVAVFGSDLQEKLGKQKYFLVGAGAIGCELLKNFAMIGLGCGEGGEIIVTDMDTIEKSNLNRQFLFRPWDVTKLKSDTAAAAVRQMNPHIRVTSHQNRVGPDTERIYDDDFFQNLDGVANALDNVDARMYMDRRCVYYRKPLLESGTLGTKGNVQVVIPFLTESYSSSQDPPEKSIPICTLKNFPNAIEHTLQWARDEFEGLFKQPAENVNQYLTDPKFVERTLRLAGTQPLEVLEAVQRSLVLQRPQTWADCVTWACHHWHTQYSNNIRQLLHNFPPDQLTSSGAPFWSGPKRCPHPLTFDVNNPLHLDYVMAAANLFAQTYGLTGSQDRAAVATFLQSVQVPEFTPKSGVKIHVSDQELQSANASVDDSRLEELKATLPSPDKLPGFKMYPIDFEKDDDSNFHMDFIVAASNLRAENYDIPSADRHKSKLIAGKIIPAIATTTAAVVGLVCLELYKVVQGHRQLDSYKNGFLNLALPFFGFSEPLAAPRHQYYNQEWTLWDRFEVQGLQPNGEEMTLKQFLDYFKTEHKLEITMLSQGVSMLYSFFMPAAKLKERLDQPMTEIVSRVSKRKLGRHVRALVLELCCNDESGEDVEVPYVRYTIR
Procedure: Fluorescence Microscopy: His-tagged UBA1 (25 μg) was incubated with Ni-NTA agarose beads (100 μl) (Invitrogen™ R90110) in PBS for 30 min. Beads were then incubated for 30 min with FITC-labeled peptide (10 μM). Beads were plated in […] (10 μl/well) (Corning 384-well High Content Imaging Glass Bottom Microplate) and imaged with an Olympus wide-field epifluorescence microscope, a 63×LCPlanFL NA 0.7 objective, and a CoolSNAP DYNO camera.

His-p53 = His-p53 (Homo sapiens, UniProt P04637); experiment: Fluorescence microscopy of Ni-NTA agarose beads, untagged or with His-p53 control; conditions: FITC-labeled peptide 10 μM
Sequence of His-p53 (P04637 whole entry): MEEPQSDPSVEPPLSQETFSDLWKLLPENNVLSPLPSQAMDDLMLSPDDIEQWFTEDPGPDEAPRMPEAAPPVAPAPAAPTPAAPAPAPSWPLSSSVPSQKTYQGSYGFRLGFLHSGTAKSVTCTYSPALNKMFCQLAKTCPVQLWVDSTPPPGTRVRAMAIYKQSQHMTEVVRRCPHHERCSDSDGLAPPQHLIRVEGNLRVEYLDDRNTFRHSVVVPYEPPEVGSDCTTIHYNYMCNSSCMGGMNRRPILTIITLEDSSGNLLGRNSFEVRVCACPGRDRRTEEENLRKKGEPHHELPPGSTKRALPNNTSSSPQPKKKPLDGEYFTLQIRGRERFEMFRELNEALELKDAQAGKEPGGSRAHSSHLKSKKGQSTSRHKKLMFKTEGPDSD

UBA1 = molecular target: T2, UBA1 (Homo sapiens, UniProt P22314); experiment: Streptavidin-biotin pull-down with recombinant protein; conditions: biotinylated peptide, silver stain
T2 sequence (P22314 1-1058): T1 sequence (P22314 1-1058)
Procedure: Streptavidin-biotin pull-down assays: For recombinant protein pull-downs, 10 pmol recombinant human UBA1 was incubated with 5 nmol C-terminally biotinylated SAH-UBE2A or DMSO vehicle control in a total volume of 1 mL binding buffer (50 mM NaCl, 20 mM HEPES, pH 7.4, 5 mM DTT) for 1.5 hours at 4° C. 30 μL of pre-equilibrated streptavidin agarose beads were then added and incubated for an additional 1.5 hours at 4° C. The beads were pelleted by centrifugation and washed three times with NP-40 buffer (20 mM HEPES, pH 7.4, 50 mM NaCl, 5 mM DTT, 0.5% [v/v] NP-40) before eluting the protein sample from the beads by heating at 70° C. for 10 min in 3×SDS loading buffer. Samples were subjected to electrophoresis and silver staining (Pierce 24612). […] Proteins were separated by SDS-PAGE gel electrophoresis and detected by western blot against UBE1 (Abcam ab34711). […] Conjugation of ubiquitin to E2 by E1 is monitored by conversion of free E2 (17 kDa) to E2˜ubiquitin conjugate (26 kDa). Quantitation of percent inhibition was calculated from densitometry of silver stain images. Error bars represent ±1 SEM calculated from three independent experiments.

[1] = listed as FITC-labeled SAH-UBE2A-11

| Substance | binding of FITC-labeled peptide to Ni-NTA beads with His-UBA1 (His-UBA1) | binding of FITC-labeled peptide to Ni-NTA beads with His-UBA1 (His-UBA1; [1]) | binding of FITC-labeled peptide to untagged beads or His-p53 beads (His-p53) | binding of FITC-labeled peptide to untagged beads or His-p53 beads (His-p53; [1]) | direct binding to recombinant UBA1, streptavidin capture (UBA1) |
| --- | --- | --- | --- | --- | --- |
| FITC-SAH-UBE2A: FITC conjugated to SEQ ID NO: 132 ([Nle]STP[R8]RRRL[Nle]R[S5]FKRLQ; staple 5-12; not fully specified (C-terminus); also: FITC conjugate, site not settled) | only bound to the beads in the presence of His-UBE1 | binds specifically to Ni-NTA beads tagged with His-UBA1 | did not bind nonspecifically to the beads (top row) or to His-p53 | did not engage untagged beads or beads tagged with an unrelated protein (His-p53) | – |
| biotinylated SAH-UBE2A: C-terminally biotinylated SAH-UBE2A (Ac-[Nle]STP[R8]RRRL[Nle]R[S5]FKRLQ-biotin; staple 5-12) | – | – | – | – | direct binding of biotinylated SAH-UBE2A to recombinant UBA1 |
